This note sets out measurements from US20200354457A1 (Hoffmann-La Roche, published 2020).

B1: MCSP-specific disulfide-stabilized aVH clone 57.1 (VHH)
VHH: EVQLVESGGGLVQPGGSLRLSCAASGFNIKQNCIEWVRRAPGKGTELVANICHDIGSTRYADSVKGRFTISADTSKNTAYLQMNSLRAEDTAVYYCAAWEQKGFNYWGQGTTVTVSS
notes: Autonomous human VH domain purified from E. coli
B2: MCSP-specific disulfide-stabilized aVH clone 44 (VHH)
VHH: EVQLVESGGGLVQPGGSLRLSCAASGFNIKDGYIDWVRRAPGKGTELVASIECTNGRATRYADSVKGRFTISCDTSKNTAYLQMNSLRAEDTAVYYCAYAGIGYYFYYWGQGTTVTVSS
notes: as for B1
B3: MCSP-specific disulfide-stabilized aVH clone 2 (VHH)
VHH: EVQLVESGGGLVQPGGSLRLSCAASSFNIKDTYIGWVRRAPGKGTELVASIDCIYGYTRYADSVKGRFTISCDTSKNTAYLQMNSLRAEDTAVYYCAAQGYRLHYWGQGTTVTVSS
notes: Autonomous human VH domain purified from E. coli by IMAC

The target in this assay is T1, biotinylated MCSP antigen (amino acids 1553 to 2184 of matured melanoma-associated chondroitin sulfate … (Homo sapiens (Human), UniProt Q6UVK1 1582-2213, limits assumed, biotin on the C-terminal avi-tag)).
T1 construct: The entry may include the leader; also called recombinant MCSP
T1 sequence: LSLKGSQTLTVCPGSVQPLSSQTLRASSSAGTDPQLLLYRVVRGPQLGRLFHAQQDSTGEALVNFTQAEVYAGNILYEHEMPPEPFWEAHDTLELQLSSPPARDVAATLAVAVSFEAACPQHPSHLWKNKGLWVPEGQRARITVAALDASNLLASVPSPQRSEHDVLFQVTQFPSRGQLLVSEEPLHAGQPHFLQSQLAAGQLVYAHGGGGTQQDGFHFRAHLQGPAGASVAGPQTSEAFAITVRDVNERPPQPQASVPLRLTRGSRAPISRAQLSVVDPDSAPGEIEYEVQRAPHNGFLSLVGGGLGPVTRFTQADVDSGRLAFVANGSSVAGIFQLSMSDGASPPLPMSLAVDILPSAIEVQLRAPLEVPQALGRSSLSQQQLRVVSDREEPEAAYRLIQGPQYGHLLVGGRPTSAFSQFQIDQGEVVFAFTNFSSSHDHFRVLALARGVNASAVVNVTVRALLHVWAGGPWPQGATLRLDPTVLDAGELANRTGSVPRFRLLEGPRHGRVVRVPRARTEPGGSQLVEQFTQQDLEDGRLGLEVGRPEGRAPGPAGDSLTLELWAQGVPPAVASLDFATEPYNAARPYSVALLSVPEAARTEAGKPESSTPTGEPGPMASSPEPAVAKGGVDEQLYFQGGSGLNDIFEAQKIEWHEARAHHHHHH
The assay is described as follows: SPR (ProteOn XPR36), biotinylated MCSP captured on NLC chip, purified aVH as analyte, 25 C.
With B1, binding was characterised by a dissociation constant (Kd) of 48 nM, the koff (usually a measure of how fast the partners let go of each other) came out at 0.0142 s⁻¹ and the kon (usually a measure of how fast the partners come together) amounted to 295000 M⁻¹ s⁻¹.
As to B2, the affinity, expressed as Kd, was 109 nM; the koff stood at 0.0163 s⁻¹; the kon turned out to be 150000 M⁻¹ s⁻¹.
The matching figures for B3: 8 nM, 0.00339 s⁻¹ and 458000 M⁻¹ s⁻¹.
